Results on 7 molecules are retold here after PMC11009412, “Pathogenic mutations of human phosphorylation sites affect protein–protein interactions” (Nature Communications, 2024).

The subject of the test is BirA*-FLAG-GATAD1 variants in Flp-In-293 cells. In words: BioID proximity labelling of full-length GATAD1 variants (SILAC). It counts as cell-based, human. As to conditions: GATAD1 WT vs S102P, significant proteins only; for Log2_Ratio.H.L.normalized.WT_S102P_forward: forward experiment (label swap performed, sign inverted against the H/L ratio); for Log2_Ratio.H.L.normalized.WT_S102P_forward / Log2_Ratio.H.L.normalized.WT_S102P_reverse: log2 of normalized H/L ratio; for Ratio.H.L.normalized.WT_S102P_forward: forward experiment; for Log2_Ratio.H.L.normalized.WT_S102P_reverse / Ratio.H.L.normalized.WT_S102P_reverse: reverse experiment. A digest of the protocol: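 Tetracycline-inducible Flp-In-293 T-REx lines expressing N-terminal BirA*-FLAG GATAD1 variants (WT, S102P, S102D, S102A) were SILAC-labelled, induced with 1 μg/mL tetracycline for 24 h and given 50 μM biotin overnight. Streptavidin-enriched proteins were trypsin-digested on-bead and analysed by LC-MS/MS. Label-swapped log2 SILAC ratios beyond ±1 defined differential proteins (n = 2).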

B1: C11orf58;SMAP (protein, UniProt O00193 1-183, looked up)
Small acidic protein: MSAARESHPHGVKRSASPDDDLGSSNWEAADLGNEERKQKFLRLMGAGKKEHTGRLVIGDHKSTSHFRTGEEDKKINEELESQYQQSMDSKLSGRYRRHCGLGFSEVEDHDGEGDVAGDDDDDDDDSPDPESPDDSESDSESEKEESAEELQAAEHPDEVEDPKNKKDAKSNYKMMFVKSSGS
In the case of B1, the Log2_Ratio.H.L.normalized.WT_S102P_forward worked out at 1.333, the Ratio.H.L.normalized.WT_S102P_forward stood at 0.3971, the Log2_Ratio.H.L.normalized.WT_S102P_reverse is listed as 1.1961 and the Ratio.H.L.normalized.WT_S102P_reverse amounted to 2.2912.

B2: ACIN1 (protein, UniProt Q9UKV3 1-1341, looked up)
Apoptotic chromatin …: MWRRKHPRTSGGTRGVLSGNRGVEYGSGRGHLGTFEGRWRKLPKMPEAVGTDPSTSRKMAELEEVTLDGKPLQALRVTDLKAALEQRGLAKSGQKSALVKRLKGALMLENLQKHSTPHAAFQPNSQIGEEMSQNSFIKQYLEKQQELLRQRLEREAREAAELEEASAESEDEMIHPEGVASLLPPDFQSSLERPELELSRHSPRKSSSISEEKGDSDDEKPRKGERRSSRVRQARAAKLSEGSQPAEEEEDQETPSRNLRVRADRNLKTEEEEEEEEEEEEDDEEEEGDDEGQKSREAPILKEFKEEGEEIPRVKPEEMMDERPKTRSQEQEVLERGGRFTRSQEEARKSHLARQQQEKEMKTTSPLEEEEREIKSSQGLKEKSKSPSPPRLTEDRKKASLVALPEQTASEEETPPPLLTKEASSPPPHPQLHSEEEIEPMEGPAPAVLIQLSPPNTDADTRELLVSQHTVQLVGGLSPLSSPSDTKAESPAEKVPEESVLPLVQKSTLADYSAQKDLEPESDRSAQPLPLKIEELALAKGITEECLKQPSLEQKEGRRASHTLLPSHRLKQSADSSSSRSSSSSSSSSRSRSRSPDSSGSRSHSPLRSKQRDVAQARTHANPRGRPKMGSRSTSESRSRSRSRSRSASSNSRKSLSPGVSRDSSTSYTETKDPSSGQEVATPPVPQLQVCEPKERTSTSSSSVQARRLSQPESAEKHVTQRLQPERGSPKKCEAEEAEPPAATQPQTSETQTSHLPESERIHHTVEEKEEVTMDTSENRPENDVPEPPMPIADQVSNDDRPEGSVEDEEKKESSLPKSFKRKISVVSATKGVPAGNSDTEGGQPGRKRRWGASTATTQKKPSISITTESLKSLIPDIKPLAGQEAVVDLHADDSRISEDETERNGDDGTHDKGLKICRTVTQVVPAEGQENGQREEEEEEKEPEAEPPVPPQVSVEVALPPPAEHEVKKVTLGDTLTRRSISQQKSGVSITIDDPVRTAQVPSPPRGKISNIVHISNLVRPFTLGQLKELLGRTGTLVEEAFWIDKIKSHCFVTYSTVEEAVATRTALHGVKWPQSNPKFLCADYAEQDELDYHRGLLVDRPSETKTEEQGIPRPLHPPPPPPVQPPQHPRAEQREQERAVREQWAEREREMERRERTRSEREWDRDKVREGPRSRSRSRDRRRKERAKSKEKKSEKKEKAQEEPPAKLLDDLFRKTKAAPCIYWLPLTDSQIVQKEAERAERAKEREKRRKEQEEEEQKEREKEAERERNRQLEREKRREHSRERDRERERERERDRGDRDRDRERDRERGRERDRRDTKRHSRSRSRSTPVRDRGGRR
Turning to B2, the Log2_Ratio.H.L.normalized.WT_S102P_forward came to 1.249, the Ratio.H.L.normalized.WT_S102P_forward is recorded as 0.4208, the Log2_Ratio.H.L.normalized.WT_S102P_reverse is reported as 1.096 and the Ratio.H.L.normalized.WT_S102P_reverse stood at 2.1371.

B3: THRAP3 (protein, UniProt Q9Y2W1 2-955, looked up)
Thyroid hormone …: SKTNKSKSGSRSSRSRSASRSRSRSFSKSRSRSRSLSRSRKRRLSSRSRSRSYSPAHNRERNHPRVYQNRDFRGHNRGYRRPYYFRGRNRGFYPWGQYNRGGYGNYRSNWQNYRQAYSPRRGRSRSRSPKRRSPSPRSRSHSRNSDKSSSDRSRRSSSSRSSSNHSRVESSKRKSAKEKKSSSKDSRPSQAAGDNQGDEAKEQTFSGGTSQDTKASESSKPWPDATYGTGSASRASAVSELSPRERSPALKSPLQSVVVRRRSPRPSPVPKPSPPLSSTSQMGSTLPSGAGYQSGTHQGQFDHGSGSLSPSKKSPVGKSPPSTGSTYGSSQKEESAASGGAAYTKRYLEEQKTENGKDKEQKQTNTDKEKIKEKGSFSDTGLGDGKMKSDSFAPKTDSEKPFRGSQSPKRYKLRDDFEKKMADFHKEEMDDQDKDKAKGRKESEFDDEPKFMSKVIGANKNQEEEKSGKWEGLVYAPPGKEKQRKTEELEEESFPERSKKEDRGKRSEGGHRGFVPEKNFRVTAYKAVQEKSSSPPPRKTSESRDKLGAKGDFPTGKSSFSITREAQVNVRMDSFDEDLARPSGLLAQERKLCRDLVHSNKKEQEFRSIFQHIQSAQSQRSPSELFAQHIVTIVHHVKEHHFGSSGMTLHERFTKYLKRGTEQEAAKNKKSPEIHRRIDISPSTFRKHGLAHDEMKSPREPGYKAEGKYKDDPVDLRLDIERRKKHKERDLKRGKSRESVDSRDSSHSRERSAEKTEKTHKGSKKQKKHRRARDRSRSSSSSSQSSHSYKAEEYTEETEEREESTTGFDKSRLGTKDFVGPSERGGGRARGTFQFRARGRGWGRGNYSGNNNNNSNNDFQKRNREEEWDPEYTPKSKKYYLHDDREGEGSDKWVSRGRGRGAFPRGRGRFMFRKSSTSPKWAHDKFSGEEGEIEDDESGTENREEKDNIQPTTE
With B3, the Log2_Ratio.H.L.normalized.WT_S102P_forward was 1.318, the Ratio.H.L.normalized.WT_S102P_forward is 0.4011, the Log2_Ratio.H.L.normalized.WT_S102P_reverse amounted to 1.052 and the Ratio.H.L.normalized.WT_S102P_reverse came to 2.0733.

B4: HN1L (protein, UniProt Q9H910 1-190, looked up)
Jupiter microtubule …: MFQVPDSEGGRAGSRAMKPPGGESSNLFGSPEEATPSSRPNRMASNIFGPTEEPQNIPKRTNPPGGKGSGIFDESTPVQTRQHLNPPGGKTSDIFGSPVTATSRLAHPNKPKDHVFLCEGEEPKSDLKAARSIPAGAEPGEKGSARKAGPAKEQEPMPTVDSHEPRLGPRPRSHNKVLNPPGGKSSISFY
For B4, the Log2_Ratio.H.L.normalized.WT_S102P_forward stood at 1.324, the Ratio.H.L.normalized.WT_S102P_forward is listed as 0.3994, the Log2_Ratio.H.L.normalized.WT_S102P_reverse came to 1.259 and the Ratio.H.L.normalized.WT_S102P_reverse came to 2.3935.

B5: SAP30BP (protein, UniProt Q9UHR5 1-308, looked up)
SAP30-binding protein: MAGKKNVLSSLAVYAEDSEPESDGEAGIEAVGSAAEEKGGLVSDAYGEDDFSRLGGDEDGYEEEEDENSRQSEDDDSETEKPEADDPKDNTEAEKRDPQELVASFSERVRNMSPDEIKIPPEPPGRCSNHLQDKIQKLYERKIKEGMDMNYIIQRKKEFRNPSIYEKLIQFCAIDELGTNYPKDMFDPHGWSEDSYYEALAKAQKIEMDKLEKAKKERTKIEFVTGTKKGTTTNATSTTTTTASTAVADAQKRKSKWDSAIPVTTIAQPTILTTTATLPAVVTVTTSASGSKTTVISAVGTIVKKAKQ
Take B5: the Log2_Ratio.H.L.normalized.WT_S102P_forward was 1.673, the Ratio.H.L.normalized.WT_S102P_forward was 0.3135, the Log2_Ratio.H.L.normalized.WT_S102P_reverse was found to be 1.201 and the Ratio.H.L.normalized.WT_S102P_reverse is reported as 2.2985.

B6: RANBP3 (protein, UniProt Q9H6Z4 2-567, looked up)
Ran-binding protein 3: ADLANEEKPAIAPPVFVFQKDKGQKSPAEQKNLSDSGEEPRGEAEAPHHGTGHPESAGEHALEPPAPAGASASTPPPPAPEAQLPPFPRELAGRSAGGSSPEGGEDSDREDGNYCPPVKRERTSSLTQFPPSQSEERSSGFRLKPPTLIHGQAPSAGLPSQKPKEQQRSVLRPAVLQAPQPKALSQTVPSSGTNGVSLPADCTGAVPAASPDTAAWRSPSEAADEVCALEEKEPQKNESSNASEEEACEKKDPATQQAFVFGQNLRDRVKLINESVDEADMENAGHPSADTPTATNYFLQYISSSLENSTNSADASSNKFVFGQNMSERVLSPPKLNEVSSDANRENAAAESGSESSSQEATPEKESLAESAAAYTKATARKCLLEKVEVITGEEAESNVLQMQCKLFVFDKTSQSWVERGRGLLRLNDMASTDDGTLQSRLVMRTQGSLRLILNTKLWAQMQIDKASEKSIRITAMDTEDQGVKVFLISASSKDTGQLYAALHHRILALRSRVEQEQEAKMPAPEPGAAPSNEEDDSDDDDVLAPSGATAAGAGDEGDGQTTGST
B6: the Log2_Ratio.H.L.normalized.WT_S102P_forward came out at 1.029, the Ratio.H.L.normalized.WT_S102P_forward was determined as 0.49, the Log2_Ratio.H.L.normalized.WT_S102P_reverse came out at 1.139 and the Ratio.H.L.normalized.WT_S102P_reverse came to 2.2024.

B7: WDR70 (protein, UniProt Q9NW82 1-654, looked up)
WD repeat-containing protein …: MERSGPSEVTGSDASGPDPQLAVTMGFTGFGKKARTFDLEAMFEQTRRTAVERSRKTLEAREKEEEMNREKELRRQNEDIEPTSSRSNVVRDCSKSSSRDTSSSESEQSSDSSDDELIGPPLPPKMVGKPVNFMEEDILGPLPPPLNEEEEEAEEEEEEEEEEENPVHKIPDSHEITLKHGTKTVSALGLDPSGARLVTGGYDYDVKFWDFAGMDASFKAFRSLQPCECHQIKSLQYSNTGDMILVVSGSSQAKVIDRDGFEVMECIKGDQYIVDMANTKGHTAMLHTGSWHPKIKGEFMTCSNDATVRTWEVENPKKQKSVFKPRTMQGKKVIPTTCTYSRDGNLIAAACQNGSIQIWDRNLTVHPKFHYKQAHDSGTDTSCVTFSYDGNVLASRGGDDSLKLWDIRQFNKPLFSASGLPTMFPMTDCCFSPDDKLIVTGTSIQRGCGSGKLVFFERRTFQRVYEIDITDASVVRCLWHPKLNQIMVGTGNGLAKVYYDPNKSQRGAKLCVVKTQRKAKQAETLTQDYIITPHALPMFREPRQRSTRKQLEKDRLDPLKSHKPEPPVAGPGRGGRVGTHGGTLSSYIVKNIALDKTDDSNPREAILRHAKAAEDSPYWVSPAYSKTQPKTMFAQVESDDEEAKNEPEWKKRKI
For B7, the Log2_Ratio.H.L.normalized.WT_S102P_forward was determined as 1.547, the Ratio.H.L.normalized.WT_S102P_forward turned out to be 0.3422, the Log2_Ratio.H.L.normalized.WT_S102P_reverse is recorded as 1.108 and the Ratio.H.L.normalized.WT_S102P_reverse is reported as 2.1553.
